Article PMC5768706, “Structural basis for chitin acquisition by marine Vibrio species” (Nature Communications, 2018)
Each block holds one compound with its values, some of them ahead of it.

What was measured:
[1] = target: T1, VhChiP (OM-expressed, native) (Vibrio harveyi, UniProt L0RVU0); test: X-ray crystal structure of co-crystals; assay type: binding; settings: 10 mM GlcNAc4, 0.1 M MES pH 6.5, 28% PEG 400
T1 construct: gene chiP; full-length mature protein after signal peptide processing, no His-tag, pET23d(+), expressed in outer membrane of E. coli BL21(DE3) omp8 rosetta, homotrimer
T1 sequence (L0RVU0 26-375): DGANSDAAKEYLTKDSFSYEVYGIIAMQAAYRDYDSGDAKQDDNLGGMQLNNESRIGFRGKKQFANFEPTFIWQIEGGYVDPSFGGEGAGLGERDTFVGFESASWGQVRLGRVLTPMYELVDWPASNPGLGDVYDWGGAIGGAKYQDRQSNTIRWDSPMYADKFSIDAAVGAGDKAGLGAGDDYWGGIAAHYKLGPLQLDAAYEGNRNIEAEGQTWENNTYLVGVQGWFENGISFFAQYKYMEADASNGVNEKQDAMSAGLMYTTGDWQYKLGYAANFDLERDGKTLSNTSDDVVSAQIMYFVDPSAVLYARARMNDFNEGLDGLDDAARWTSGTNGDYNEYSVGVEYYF

[2] = target: T1, VhChiP (OM-expressed, native); test: single-channel electrophysiology, planar lipid bilayer, ion current block titration; assay type: binding; settings: 1 M KCl, 20 mM HEPES pH 7.5, 25 °C, -100 mV, sugar on cis side; range printed jointly for both full-length channels
[3] = target: OM-expressed VhChiP (chitoporin from Vibrio harveyi) (Vibrio harveyi); test: SDS-PAGE of non-boiled and boiled samples; purified protein loaded non-boiled and boiled; heat-modifiable mobility
[4] = target: OM-expressed VhChiP (chitoporin from Vibrio harveyi) (Vibrio harveyi); test: crystal structure; OM-expressed VhChiP, 10 mg/mL, 0.4% C8E4; space group C2: 28% PEG 400, 0.2 M sodium acetate, 0.1 M MES pH 6.5
[5] = target: in vitro-folded VhChiP (Vibrio harveyi); test: SDS-PAGE of non-boiled and boiled samples; purified protein loaded non-boiled and boiled; heat-modifiable mobility
[6] = target: in vitro-folded VhChiP (Vibrio harveyi); test: crystal structure; in vitro-folded SeMet VhChiP, ~12 mg/mL, 0.4% C8E4; crystal form I P2_(1): 30% PEG 400, 0.05 M NaCl, 0.1 M sodium citrate pH 5.5; crystal form II: 28% PEG 400, 0.5 M potassium iodide, 0.1 M Tris pH 8.5

Compound: CC(=O)N[C@H]1[C@H](O[C@H]2[C@H](O)[C@@H](NC(C)=O)C(O)O[C@@H]2CO)O[C@H](CO)[C@@H](O[C@@H]2O[C@H](CO)[C@@H](O[C@@H]3O[C@H](CO)[C@@H](O)[C@H](O)[C@H]3NC(C)=O)[C@H](O)[C@H]2NC(C)=O)[C@@H]1O (stereo partly drawn) [chitotetraose]
X-ray crystal structure of co-crystals [1]: we co-crystallized OM-expressed VhChiP with chitotetraose (GlcNAc4)

Compound: CC(=O)N[C@H]1[C@H](O[C@H]2[C@H](O)[C@@H](NC(C)=O)[C@H](O[C@H]3[C@H](O)[C@@H](NC(C)=O)C(O)O[C@@H]3CO)O[C@@H]2CO)O[C@H](CO)[C@@H](O[C@@H]2O[C@H](CO)[C@@H](O[C@@H]3O[C@H](CO)[C@@H](O[C@@H]4O[C@H](CO)[C@@H](O)[C@H](O)[C@H]4NC(C)=O)[C@H](O)[C@H]3NC(C)=O)[C@H](O)[C@H]2NC(C)=O)[C@@H]1O (stereo partly drawn) [chitohexaose]
K [2]: 2–5 × 10^5

stoichiometry N [3]: 3
stoichiometry N [4]: 3
Compound: OM-expressed VhChiP (chitoporin from Vibrio harveyi) (natural protein)

stoichiometry N [5]: 3
stoichiometry N [6]: 3
Compound: in vitro-folded VhChiP (natural protein)
